Assay results: the supplement of paper PMC7877785
± gives the uncertainty stated by the source.

Experiment: self-splicing fitness, log relative to wild type (ln ratio); higher = more splicing; Tetrahymena group I intron in knt gene, E. coli kanamycin selection, DiMSum; sequences stand for … in CUCUCU…GGAGGGAAAAGUUAUCAGGCAUGCACCUGGUAGCUAGUCUUUAAACCAAUAGAUUGCAUCGGUUUAAAAGGCAAGACCGUCAAAUUGCGGGAAAGGGGUCAACAGCCGUUCAGUACCAAGUCUCAGGGGAAACUUUGAGAUGGCCUUGCAAAGGGUAUGGUAAUAAGCUGACGGACAUGGUCCUAACCACGCAGCCAAGUCCUAAGUCAACAGAUCUUCUGUUGAUAUGGAUGCAGUUCACAGACUAAAUGUCGGUCGGGGAAGAUGUAUUCUUCUCAUAAGAUAUAGUCGGACCUCUCCUUAAUGGGAGCUAGCGGAUGAAGUGAUGCAACACUGGAGCCGCUGGGAACUAAUUUGUAUGCGAAAGUAUAUUGAUUAGUUUUGGAGUACUCGUGGUCG
Method in brief: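 Six replicate transformations of E. coli BL21(DE3) with a pET-22b(+) library were grown overnight at 37°C or 30°C. The library randomised all eight P1ex-region intron nucleotides, the intron lying in the knt kanamycin-resistance gene, and plates were LB agar with or without 25 μg/mL kanamycin plus 100 μg/mL carbenicillin, 50 μM IPTG and 0.2% rhamnose. Pooled colonies were amplicon-sequenced on an Illumina HiSeq 2500, and fitness is the DiMSum error-weighted combination of wild-type-normalised replicate fold changes, kanamycin versus none.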

Row | Sequence | self-splicing fitness (ln) (30 °C) | self-splicing fitness (ln) (37 °C)
1 | UGAAAGCAAUAUUACGAUUA | -0.302 ± 0.065 | 0.211 ± 0.096
2 | CGCAAGCAAUAUUACGGUCU | -0.969 ± 0.066 | -0.898 ± 0.081
3 | UGUGAGCAAUAUUACGCAAU | -4.42 ± 0.42 | -2.73 ± 0.31
4 | AACCAGCAAUAUUACGUCUG | -3.9 ± 0.17 | -2.54 ± 0.16
5 | UAACAGCAAUAUUACGAGCG | -0.617 ± 0.055 | 0.286 ± 0.069
6 | UCGUAGCAAUAUUACGCUAA |  | -1.48 ± 0.29
7 | AUCUAGCAAUAUUACGGUGA | -1.75 ± 0.11 | -0.608 ± 0.13
8 | CGAAAGCAAUAUUACGAUAC | -1.99 ± 0.18 | -2.11 ± 0.38
9 | ACUUAGCAAUAUUACGUGCC | -0.96 ± 0.13 | -1.4 ± 0.15
10 | UCGGAGCAAUAUUACGCGAU | -3.51 ± 0.19 | -2.42 ± 0.23
11 | AGAAAGCAAUAUUACGUUGC | -4 ± 0.13 | -3.36 ± 0.15
12 | UCACAGCAAUAUUACGCCCU | -3.66 ± 0.35 | -0.688 ± 0.2
13 | GGGCAGCAAUAUUACGAUCG | -0.913 ± 0.098 | 0.377 ± 0.15
14 | CAGAAGCAAUAUUACGGCCC | -2.98 ± 0.44 | 
15 | GCCAAGCAAUAUUACGAGGU | -3.83 ± 0.18 | -2.74 ± 0.26
16 | UAAUAGCAAUAUUACGGCUC | -2.37 ± 0.23 | -0.201 ± 0.23
17 | GCUCAGCAAUAUUACGGCGU | -0.15 ± 0.062 | 0.324 ± 0.082
18 | UCUGAGCAAUAUUACGGAGG | -3.34 ± 0.32 | -1.79 ± 0.27
19 | AGAGAGCAAUAUUACGUGAG | -3.12 ± 0.17 | -2.9 ± 0.26
20 | UCCAAGCAAUAUUACGGCAU | -3.77 ± 0.21 | -1.48 ± 0.12
21 | CUACAGCAAUAUUACGUCGG | -1.98 ± 0.066 | -0.736 ± 0.079
22 | AUACAGCAAUAUUACGGUGA | -0.847 ± 0.063 | 0.283 ± 0.077
23 | CUAAAGCAAUAUUACGGGUU | -4.13 ± 0.28 | -3.49 ± 0.33
24 | AUCUAGCAAUAUUACGGAAG | -1.99 ± 0.12 | -0.947 ± 0.15
25 | AAUGAGCAAUAUUACGAUCU | -0.572 ± 0.074 | -0.195 ± 0.1

Row | Sequence | self-splicing fitness (ln) (30 °C) | self-splicing fitness (ln) (37 °C)
26 | CUCUAGCAAUAUUACGUCGG | -3.22 ± 0.22 | -1.57 ± 0.18
27 | UCAGAGCAAUAUUACGGGAC | -3.74 ± 0.29 | -1.6 ± 0.33
28 | UACUAGCAAUAUUACGUAUU | -4.56 ± 0.29 | -2.24 ± 0.15
29 | UGCGAGCAAUAUUACGAGUC | -3.05 ± 0.21 | -2.27 ± 0.2
30 | UUUUAGCAAUAUUACGUGAC | -3.41 ± 0.28 | -0.031 ± 0.22
31 | AGUUAGCAAUAUUACGCAAC | -2.75 ± 0.24 | -3.1 ± 0.37
32 | CGAUAGCAAUAUUACGCGAC | -2.59 ± 0.32 | -1.35 ± 0.28
33 | GUUUAGCAAUAUUACGUAUG | -2.29 ± 0.21 | -0.712 ± 0.17
34 | GACCAGCAAUAUUACGCCUU | -0.277 ± 0.07 | 0.293 ± 0.087
35 | GAACAGCAAUAUUACGCUUU | -2.71 ± 0.14 | -1.93 ± 0.15
36 | GACGAGCAAUAUUACGCUCC | -2.9 ± 0.29 | -1.91 ± 0.34
37 | CCAGAGCAAUAUUACGCGUA | -1.99 ± 0.19 | -4.46 ± 0.38
38 | GGCAAGCAAUAUUACGUACU | -0.208 ± 0.072 | 0.344 ± 0.088
39 | AUAAAGCAAUAUUACGCUAC | -3.14 ± 0.25 | -2.99 ± 0.33
40 | CCACAGCAAUAUUACGCACU | -3.41 ± 0.1 | -2.27 ± 0.12
41 | AUCCAGCAAUAUUACGUACC | -2 ± 0.17 | -0.552 ± 0.32
42 | ACGGAGCAAUAUUACGGCGA | -2.01 ± 0.13 | -1.83 ± 0.15
43 | UUGAAGCAAUAUUACGUCUA | 0.0429 ± 0.11 | 0.627 ± 0.12
44 | AGCCAGCAAUAUUACGAUGA | -3.75 ± 0.29 | -2.35 ± 0.24
45 | CCUUAGCAAUAUUACGGAGU | -3.24 ± 0.21 | -2.78 ± 0.19
46 | UUACAGCAAUAUUACGGCUA | -0.676 ± 0.091 | 0.443 ± 0.11
47 | CCUAAGCAAUAUUACGCUCU | -2.4 ± 0.14 | -2.94 ± 0.3
48 | GCUCAGCAAUAUUACGCGCC | -2.16 ± 0.14 | -1.92 ± 0.17
49 | CCUUAGCAAUAUUACGUCGA |  | -2.67 ± 0.34
50 | UUGUAGCAAUAUUACGAUGC |  | -1.92 ± 0.43

Row | Sequence | self-splicing fitness (ln) (30 °C) | self-splicing fitness (ln) (37 °C)
51 | AAGCAGCAAUAUUACGUCUU | -1.66 ± 0.075 | -1.05 ± 0.071
52 | GAGGAGCAAUAUUACGGUGU | -3.56 ± 0.27 | -1.59 ± 0.21
53 | UUGGAGCAAUAUUACGAGAC |  | -2.25 ± 0.5
54 | CCUGAGCAAUAUUACGUCGA | -3.41 ± 0.42 | -3.34 ± 0.33
55 | AAACAGCAAUAUUACGAAAU | -2.72 ± 0.13 | -1.48 ± 0.13
56 | AACAAGCAAUAUUACGACCG | -0.711 ± 0.12 | 0.209 ± 0.16
57 | ACUUAGCAAUAUUACGCCCU | -0.568 ± 0.16 | 0.0637 ± 0.28
58 | GUGAAGCAAUAUUACGGAUC | -1.43 ± 0.086 | -0.286 ± 0.13
59 | CACGAGCAAUAUUACGAUGU | -3.52 ± 0.18 | -3.49 ± 0.24
60 | CGGAAGCAAUAUUACGUAUG | -1.49 ± 0.069 | -0.904 ± 0.083
61 | CGACAGCAAUAUUACGCUUU | -5.56 ± 0.41 | -2.05 ± 0.15
62 | ACACAGCAAUAUUACGCUAU | -2.81 ± 0.082 | -1.53 ± 0.079
63 | GUAUAGCAAUAUUACGUAAG | -1.48 ± 0.13 | -0.567 ± 0.14
64 | CCUCAGCAAUAUUACGCUCU | -4.29 ± 0.43 | 
65 | GCUGAGCAAUAUUACGACGC |  | -1.7 ± 0.42
66 | CGCCAGCAAUAUUACGUGCU | -3.27 ± 0.2 | -3.23 ± 0.33
67 | AUGAAGCAAUAUUACGCUAG | -0.164 ± 0.07 | 0.337 ± 0.086
68 | CCACAGCAAUAUUACGGUAG | -0.799 ± 0.046 | -0.163 ± 0.065
69 | UCCUAGCAAUAUUACGCCGU | -1.83 ± 0.26 | -0.887 ± 0.24
70 | GAUCAGCAAUAUUACGUUUG | -1.53 ± 0.058 | 0.151 ± 0.08
71 | GCGUAGCAAUAUUACGCGAA |  | -1.31 ± 0.39
72 | UUUGAGCAAUAUUACGUUGA |  | -1.92 ± 0.33
73 | CUUGAGCAAUAUUACGCGGU | -2.53 ± 0.33 | -2.78 ± 0.48
74 | GAACAGCAAUAUUACGCACC | -0.638 ± 0.096 | 0.0849 ± 0.097
75 | AGUCAGCAAUAUUACGGAAG | -3.36 ± 0.17 | -1.67 ± 0.16

Row | Sequence | self-splicing fitness (ln) (30 °C) | self-splicing fitness (ln) (37 °C)
76 | CAUUAGCAAUAUUACGAUGC |  | -3.61 ± 0.42
77 | ACGUAGCAAUAUUACGACUA | -0.558 ± 0.15 | 0.529 ± 0.18
78 | ACGGAGCAAUAUUACGCGGA | -3.41 ± 0.37 | -1.54 ± 0.26
79 | AAGAAGCAAUAUUACGGUUA | -0.783 ± 0.15 | -0.983 ± 0.12
80 | UGGUAGCAAUAUUACGUAGC | -1.3 ± 0.2 | -0.833 ± 0.27
81 | GAUCAGCAAUAUUACGGUAC | -0.39 ± 0.11 | -0.884 ± 0.12
82 | CCCUAGCAAUAUUACGCGGU | -3.75 ± 0.16 | -2.53 ± 0.18
83 | CGUGAGCAAUAUUACGCCGA |  | -1.96 ± 0.41
84 | GACUAGCAAUAUUACGUUUA | -1.05 ± 0.094 | -0.651 ± 0.11
85 | ACCGAGCAAUAUUACGAGGA | -2.77 ± 0.21 | -2.99 ± 0.38
86 | CUCGAGCAAUAUUACGAGCU | -3.85 ± 0.32 | 
87 | GAAAAGCAAUAUUACGCGAA | -2.75 ± 0.2 | -1.13 ± 0.18
88 | GCCUAGCAAUAUUACGAGAG | -3.76 ± 0.32 | -1.44 ± 0.12
89 | ACUAAGCAAUAUUACGGGCU | -0.833 ± 0.089 | -0.736 ± 0.083
90 | GCGGAGCAAUAUUACGCUAU | -3.16 ± 0.36 | -2.53 ± 0.49
91 | GGCAAGCAAUAUUACGGUAC | -0.729 ± 0.072 | -0.752 ± 0.09
92 | CGCCAGCAAUAUUACGGGAC |  | -2.48 ± 0.24
93 | CCUUAGCAAUAUUACGAUUG | -1.85 ± 0.098 | -0.965 ± 0.1
94 | GUUGAGCAAUAUUACGCUAG | -3.01 ± 0.44 | 
95 | AUUAAGCAAUAUUACGGCGC | -0.47 ± 0.15 | 0.103 ± 0.17
96 | AACCAGCAAUAUUACGGUCA | -0.301 ± 0.045 | 0.0924 ± 0.062
97 | CGGAAGCAAUAUUACGCGUG | -1.54 ± 0.16 | -0.867 ± 0.17
98 | UUGUAGCAAUAUUACGGCUC | -1.79 ± 0.31 | 0.26 ± 0.24
99 | ACAUAGCAAUAUUACGGCCG | -0.333 ± 0.15 | 0.385 ± 0.24
100 | ACAUAGCAAUAUUACGGAGC |  | -0.767 ± 0.15
